Reference: the nanobody polyreactivity screen of Harvey et al. (2022)

Assay: yeast display, Sf9 membrane polyspecificity reagent, FACS + sequencing; frameworks hold sequencing errors
Method in brief: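 Galactose-induced (36–48 hours) yeast carrying a synthetic nanobody display library were exposed to 10% biotinylated, detergent-solubilized Sf9 membrane reagent at 4 °C for 1 hour. FACS followed streptavidin microbead enrichment, using low and high (top ~1%) gates for expression (anti-HA) and reagent binding (streptavidin). Colony PCR, MiSeq 2 × 250 sequencing and CDR-length filtering followed. Labels for polyreactivity reflect the gate of origin.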

| Sequence | polyreactivity (PSR sort gate) |
| --- | --- |
| QVQLVESGGRLVQAGGSLRLSCAASGRISWSYAMGWYRQAPGKERELVAAITSGGTTNYADSVKGRFTISRDNAKNTVYLQMNSLKPEDTAVYYCARDSYQLGLIRDPLEYDYWGQGTQVTVSS | low polyreactivity |
| QVQLVESGGRLVQAGGSLRLSCAASGRTFEIYSMGRYRHAPGKERELVAAITSGGSTYYADSVKGRFTISRDNAKNTVYLQMNSLKPEDTAVYYCNAYLYYDAHGVDYWGQGTQVTVSS | high polyreactivity |
| QVQLVESGGRLVQAGGSLRLSCAASGRTFHKNAMGWYRQAPGKERELVAAISGSGGSTYYADSVKGRFTISRDNAKNTVYLQMNSLKPEDTAVYYCAADSSYYEEDYWGQGTHVTVSS | high polyreactivity |
| QVQLVESGGRLVQAGGSLRLSCAASGRTFLVNDMGWYRQAPGKERELVAAINYNAGSTFYADSVKGRFTISRDIAKNTVYLQMNSLKPEDTAVYYCATDVYGYVEYDYWGQGTQVTVSS | low polyreactivity |
| QVQLVESGGRLVQAGGSLRLSCAASGRTFQSYAMGWYRQAPGKERELVAAITITGGRTYYADSVKGRFTISRDNAKNTVYLQMNSLKPEDTAVYYCAAEEYSHYTLGYDYWGQGTQVTVSS | low polyreactivity |
| QVQLVESGGRLVQAGGSLRLSCAASGRTFRAYVMGWYRQSPGKERELVAAISSSGGRTYYADSVKGRFTISRDNAKNTVYLQMNSLKPEDTAVYYCAAQAVRGGIGEDDYWGQGTQVTVSS | high polyreactivity |
| QVQLVESGGRLVQAGGSLRLSCAASGRTFRGYAMGWYRQAPGKEREWVAAISSGGSTYYADSVKGRFTISRDNAKNTVYFQMNSLKPEDTAVSYCDRAVGNYRTLEFDYWGQGTQVTVSS | low polyreactivity |
| QVQLVESGGRLVQAGGSLRLSCAASGRTFSTNVMGRYRQAPGKVRELVAAITTSSSRTYYADSVKGRFTISRDNAKNTVYLQMNSLKPEDTAVYYCAAGIHGSWSFDYWGQGTQVTLSS | low polyreactivity |
| QVQLVESGGRLVQAGGSLRLSCAASGRTFTAYTMGGYRQAPGKERELVASNSSGVTYADSVKGRFTISRDNAKNTVYLQMNSLKPEDTAVYYCAARLWYVQGYVPYVHHRFDYWGQGTQVTVSS | low polyreactivity |
| QVQLVESGGRLVQAGGSLRLSCAASGRTFVTNAMGWYRQAPGQERELVAAISSNGGSTYYADSVKGRFTISRDNAKNTVYLQMNSLKPEDTAVYYCNAEGQPLYVSWHDHRYIYGFDYWGQGTQVTVSS | low polyreactivity |
| QVQLVESGGRLVQAGGSLRLSCAASGRTSVVHAMGWYRTAPGKERELVAAITSGGSTHYPDSVKGRFTISRDNAKNTVYLQMNSLKPEDTAVYYCNARDRRRTNLQDYWGQGTQVTVSS | low polyreactivity |
| QVQLVESGGRLVQAGGSLRLSCAASGSIFLAYAMGWYRQAPGKEREFVAAISFSDGSTYYADSVKGRFTISRDNAKNTVYLQMNSLKPEDTAVYYCNKGASPDDYDYWGQGTQVTVSS | low polyreactivity |
| QVQLVESGGRLVQAGGSLRLSCAASGSIFRANAMVWYRQAPGNERELVAAISPNGGSTYYADSVKGRFTISRDHAKNTVYLQMNSLKPEDTAVYYCNTDHRNIWFRFKYDYWGQGTQVTVSS | high polyreactivity |
| QVQLVESGGRLVQAGGSLRLSCAASGSIFRSYAMAWYRPAPGKERELVAGISYSGGSTYYADSVKGRFTISRDNAKNTVYLQMNSLKPEDTAVYYCNVDGGTYFFFVGAWGEYDYWGQGTQVTVSS | low polyreactivity |
| QVQLVESGGRLVQAGGSLRLSCAASGSIIVYNTMGWYRQAPGKERELVAAITVRDDSTYYADSVKGRFTISRDNAKNTVYLQMNSLKPEDTAVYYCNARGNFLIGRDYWGQGTQVTVSS | low polyreactivity |
| QVQLVESGGRLVQAGGSLRLSCAASGSTFGRYVMGWYRQTPGKERELVAAISYSGGRTYYADSVKLRFTISRDNAKNTVYLQMNSLNPEDTAVFYCATRVTLTRWLYDYWGQGSQVTVSS | high polyreactivity |
